Measured values as given in US20230357348A1 (AstraZeneca / MedImmune, published 2023).
Starred links: 1 amine or outer side, 2 acyl side, 3 side chain; linkers in the order of their positions; H or OH if unused. Non-standard residues stand in square brackets, D forms with d. Groups on a side chain read outwards from the residue. No end group written: not given here. *: point of attachment. C20 diacid = O=C(O)CCCCCCCCCCCCCCCCCCC(=O)*; C18 diacid = O=C(O)CCCCCCCCCCCCCCCCC(=O)*; γGlu = O=C(O)[C@H](CCC(=O)[*:2])N[*:1]; αMeF = C[C@](N)(Cc1ccccc1)C(=O)O; (PEG)2 = polyethylene glycol 2; PEG4 = NCCOCCOCCOCCOCCC(=O)O; AEEA = NCCOCCOCC(=O)O; Aib = CC(C)(N)C(=O)O

Experiments:
human GLP-1 receptor = human GLP-1 receptor (human, UniProt P43220 24-463); assay: cell-based or functional assay
human glucagon receptor = human glucagon receptor (human, UniProt P47871 26-477); assay: cell-based or functional assay
human glucagon receptor, sequence (P47871 26-477): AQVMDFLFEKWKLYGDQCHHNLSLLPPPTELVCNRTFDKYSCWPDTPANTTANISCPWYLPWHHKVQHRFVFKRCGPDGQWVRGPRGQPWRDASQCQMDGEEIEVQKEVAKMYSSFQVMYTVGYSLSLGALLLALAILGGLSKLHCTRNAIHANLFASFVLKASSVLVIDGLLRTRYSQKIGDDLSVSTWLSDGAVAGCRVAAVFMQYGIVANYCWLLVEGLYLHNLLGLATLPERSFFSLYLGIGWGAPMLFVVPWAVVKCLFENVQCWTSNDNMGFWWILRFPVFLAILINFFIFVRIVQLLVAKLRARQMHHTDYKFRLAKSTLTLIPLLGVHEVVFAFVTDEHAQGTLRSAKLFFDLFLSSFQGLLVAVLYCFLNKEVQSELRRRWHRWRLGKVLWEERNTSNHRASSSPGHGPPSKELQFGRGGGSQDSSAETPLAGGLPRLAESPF

hGLP-1R EC50 (pM), cAMP (human GLP-1 receptor)	hGluc-R EC50 (pM), cAMP (human glucagon receptor)	Binder
34 pM	93.1 pM	H[Aib]HGS[αMeF]TSDVSK[αMeF]LDSRAAK([(PEG)2-(PEG)2-γGlu-γGlu-C18 diacid])D[αMeF]VQ[Aib]IANT-NH2 [Peptide 258]
601 pM	1570 pM	H[Aib]HGS[αMeF]TSDVSK[αMeF]LDSR[Aib]AK([AEEA-AEEA-γGlu-γGlu-C18 diacid])D[αMeF]VESIANT-NH2 [Peptide 250]
346 pM	1310 pM	H[Aib]HGS[αMeF]TSDVSK[αMeF]LDSQAAK([AEEA-AEEA-γGlu-γGlu-C20 diacid])D[αMeF]VQ[Aib]IANT-NH2 [Peptide 256]
34.9 pM	145 pM	H[Aib]HGS[αMeF]TSDVSK[αMeF]LDSRAAK([AEEA-AEEA-γGlu-C18 diacid])D[αMeF]VQ[Aib]IANT-NH2 (N-terminus assumed; SMILES CC[C@H](C)[C@H](NC(=O)C(C)(C)NC(=O)[C@H](CCC(N)=O)NC(=O)[C@@H](NC(=O)[C@](C)(Cc1ccccc1)NC(=O)[C@H](CC(=O)O)NC(=O)[C@H](CCCCNC(=O)COCCOCCNC(=O)COCCOCCNC(=O)CC[C@H](NC(=O)CCCCCCCCCCCCCCCCC(=O)O)C(=O)O)NC(=O)[C@H](C)NC(=O)[C@H](C)NC(=O)[C@H](CCCNC(=N)N)NC(=O)[C@H](CO)NC(=O)[C@H](CC(=O)O)NC(=O)[C@H](CC(C)C)NC(=O)[C@](C)(Cc1ccccc1)NC(=O)[C@H](CCCCN)NC(=O)[C@H](CO)NC(=O)[C@@H](NC(=O)[C@H](CC(=O)O)NC(=O)[C@H](CO)NC(=O)[C@@H](NC(=O)[C@](C)(Cc1ccccc1)NC(=O)[C@H](CO)NC(=O)CNC(=O)[C@H](Cc1c[nH]cn1)NC(=O)C(C)(C)NC(=O)[C@@H](N)Cc1c[nH]cn1)[C@@H](C)O)C(C)C)C(C)C)C(=O)N[C@@H](C)C(=O)N[C@@H](CC(N)=O)C(=O)N[C@H](C(N)=O)[C@@H](C)O) [Peptide 225]
320 pM	557 pM	H[Aib]HGS[αMeF]TSDVSK[αMeF]LDSRAAK([AEEA-AEEA-γGlu-γGlu-C20 diacid])D[αMeF]VESIANT-NH2 (N-terminus assumed; SMILES CC[C@H](C)[C@H](NC(=O)[C@H](CO)NC(=O)[C@H](CCC(=O)O)NC(=O)[C@@H](NC(=O)[C@](C)(Cc1ccccc1)NC(=O)[C@H](CC(=O)O)NC(=O)[C@H](CCCCNC(=O)COCCOCCNC(=O)COCCOCCNC(=O)CC[C@H](NC(=O)CC[C@H](NC(=O)CCCCCCCCCCCCCCCCCCC(=O)O)C(=O)O)C(=O)O)NC(=O)[C@H](C)NC(=O)[C@H](C)NC(=O)[C@H](CCCNC(=N)N)NC(=O)[C@H](CO)NC(=O)[C@H](CC(=O)O)NC(=O)[C@H](CC(C)C)NC(=O)[C@](C)(Cc1ccccc1)NC(=O)[C@H](CCCCN)NC(=O)[C@H](CO)NC(=O)[C@@H](NC(=O)[C@H](CC(=O)O)NC(=O)[C@H](CO)NC(=O)[C@@H](NC(=O)[C@](C)(Cc1ccccc1)NC(=O)[C@H](CO)NC(=O)CNC(=O)[C@H](Cc1c[nH]cn1)NC(=O)C(C)(C)NC(=O)[C@@H](N)Cc1c[nH]cn1)[C@@H](C)O)C(C)C)C(C)C)C(=O)N[C@@H](C)C(=O)N[C@@H](CC(N)=O)C(=O)N[C@H](C(N)=O)[C@@H](C)O) [Peptide 246]
13 pM	11.7 pM	H[Aib]HGS[αMeF]TSDVSK[αMeF]LDSRAAK([AEEA-γGlu-C18 diacid])D[αMeF]VQ[Aib]IANT-NH2 [Peptide 262]
7620 pM	2610 pM	H[Aib]HGS[αMeF]TSDVSK[αMeF]LDSRAAK([AEEA-AEEA-γGlu-C20 diacid])D[αMeF]VQWIANT-NH2 (N-terminus assumed; SMILES CC[C@H](C)[C@H](NC(=O)[C@H](Cc1c[nH]c2ccccc12)NC(=O)[C@H](CCC(N)=O)NC(=O)[C@@H](NC(=O)[C@](C)(Cc1ccccc1)NC(=O)[C@H](CC(=O)O)NC(=O)[C@H](CCCCNC(=O)COCCOCCNC(=O)COCCOCCNC(=O)CC[C@H](NC(=O)CCCCCCCCCCCCCCCCCCC(=O)O)C(=O)O)NC(=O)[C@H](C)NC(=O)[C@H](C)NC(=O)[C@H](CCCNC(=N)N)NC(=O)[C@H](CO)NC(=O)[C@H](CC(=O)O)NC(=O)[C@H](CC(C)C)NC(=O)[C@](C)(Cc1ccccc1)NC(=O)[C@H](CCCCN)NC(=O)[C@H](CO)NC(=O)[C@@H](NC(=O)[C@H](CC(=O)O)NC(=O)[C@H](CO)NC(=O)[C@@H](NC(=O)[C@](C)(Cc1ccccc1)NC(=O)[C@H](CO)NC(=O)CNC(=O)[C@H](Cc1c[nH]cn1)NC(=O)C(C)(C)NC(=O)[C@@H](N)Cc1c[nH]cn1)[C@@H](C)O)C(C)C)C(C)C)C(=O)N[C@@H](C)C(=O)N[C@@H](CC(N)=O)C(=O)N[C@H](C(N)=O)[C@@H](C)O) [Peptide 215]
16.2 pM	29.4 pM	H[Aib]HGS[αMeF]TSDVSK[αMeF]LDSRAAK([PEG4-γGlu-C18 diacid])D[αMeF]VQ[Aib]IANT-NH2 (N-terminus assumed; SMILES CC[C@H](C)[C@H](NC(=O)C(C)(C)NC(=O)[C@H](CCC(N)=O)NC(=O)[C@@H](NC(=O)[C@](C)(Cc1ccccc1)NC(=O)[C@H](CC(=O)O)NC(=O)[C@H](CCCCNC(=O)CCOCCOCCOCCOCCNC(=O)CC[C@H](NC(=O)CCCCCCCCCCCCCCCCC(=O)O)C(=O)O)NC(=O)[C@H](C)NC(=O)[C@H](C)NC(=O)[C@H](CCCNC(=N)N)NC(=O)[C@H](CO)NC(=O)[C@H](CC(=O)O)NC(=O)[C@H](CC(C)C)NC(=O)[C@](C)(Cc1ccccc1)NC(=O)[C@H](CCCCN)NC(=O)[C@H](CO)NC(=O)[C@@H](NC(=O)[C@H](CC(=O)O)NC(=O)[C@H](CO)NC(=O)[C@@H](NC(=O)[C@](C)(Cc1ccccc1)NC(=O)[C@H](CO)NC(=O)CNC(=O)[C@H](Cc1c[nH]cn1)NC(=O)C(C)(C)NC(=O)[C@@H](N)Cc1c[nH]cn1)[C@@H](C)O)C(C)C)C(C)C)C(=O)N[C@@H](C)C(=O)N[C@@H](CC(N)=O)C(=O)N[C@H](C(N)=O)[C@@H](C)O) [Peptide 261]
534 pM	141 pM	H[Aib]HGS[αMeF]TSDVSK[αMeF]LDSRAAK([AEEA-AEEA-γGlu-γGlu-C20 diacid])DFVEWIANT-NH2 (N-terminus assumed; SMILES CC[C@H](C)[C@H](NC(=O)[C@H](Cc1c[nH]c2ccccc12)NC(=O)[C@H](CCC(=O)O)NC(=O)[C@@H](NC(=O)[C@H](Cc1ccccc1)NC(=O)[C@H](CC(=O)O)NC(=O)[C@H](CCCCNC(=O)COCCOCCNC(=O)COCCOCCNC(=O)CC[C@H](NC(=O)CC[C@H](NC(=O)CCCCCCCCCCCCCCCCCCC(=O)O)C(=O)O)C(=O)O)NC(=O)[C@H](C)NC(=O)[C@H](C)NC(=O)[C@H](CCCNC(=N)N)NC(=O)[C@H](CO)NC(=O)[C@H](CC(=O)O)NC(=O)[C@H](CC(C)C)NC(=O)[C@](C)(Cc1ccccc1)NC(=O)[C@H](CCCCN)NC(=O)[C@H](CO)NC(=O)[C@@H](NC(=O)[C@H](CC(=O)O)NC(=O)[C@H](CO)NC(=O)[C@@H](NC(=O)[C@](C)(Cc1ccccc1)NC(=O)[C@H](CO)NC(=O)CNC(=O)[C@H](Cc1c[nH]cn1)NC(=O)C(C)(C)NC(=O)[C@@H](N)Cc1c[nH]cn1)[C@@H](C)O)C(C)C)C(C)C)C(=O)N[C@@H](C)C(=O)N[C@@H](CC(N)=O)C(=O)N[C@H](C(N)=O)[C@@H](C)O) [Peptide 213]
79.8 pM	248 pM	H[Aib]HGS[αMeF]TSDVSK[αMeF]LDSR[Aib]AK([AEEA-AEEA-γGlu-C18 diacid])DFVESIANT-NH2 (not fully specified) [Peptide 251]
75.5 pM	53.1 pM	H[Aib]HGS[αMeF]TSDVSK[αMeF]LDSR[Aib]AK([AEEA-γGlu-C18 diacid])DFVESIANT-NH2 [Peptide 253]
33.1 pM	76.9 pM	H[Aib]HGS[αMeF]TSDVSK[αMeF]LDSRAAK([AEEA-γGlu-AEEA-γGlu-C18 diacid])D[αMeF]VQ[Aib]IANT-NH2 [Peptide 260]
70.5 pM	27.2 pM	H[Aib]HGS[αMeF]TSDVSK[αMeF]LDSRAAK([AEEA-AEEA-γGlu-C18 diacid])D[αMeF]VE[Aib]IANT-NH2 [Peptide 227]
143 pM	420 pM	H[Aib]HGS[αMeF]TSDVSK[αMeF]LDSRAAK([AEEA-AEEA-γGlu-γGlu-C20 diacid])D[αMeF]VQSIANT-NH2 (not fully specified) [Peptide 244]
119 pM	1310 pM	H[Aib]HGS[αMeF]TSDVSK[αMeF]LDSR[Aib]AK([AEEA-AEEA-γGlu-C20 diacid])DFVESIANT-NH2 [Peptide 252]
122 pM	123 pM	H[Aib]HGS[αMeF]TSDVSK[αMeF]LDSR[Aib]AK([AEEA-AEEA-γGlu-γGlu-C20 diacid])DFVQ[Aib]IANT-NH2 (not fully specified) [Peptide 221]
19.1 pM	34.8 pM	H[Aib]HGS[αMeF]TSDVSK[αMeF]LDSRAAK([AEEA-γGlu-AEEA-C18 diacid])D[αMeF]VQ[Aib]IANT-NH2 [Peptide 259]
102 pM	125 pM	H[Aib]HGS[αMeF]TSDVSK[αMeF]LDSR[Aib]AK([γGlu-C18 diacid])DFVESIANT-NH2 [Peptide 254]
